Tests used:
NCI-H441 [1] = assay: In vivo combination of 224G11 and Navelbine on NCI-H441 xenograft model (Example 19); parameters: species or system Athymic nude mice; settings: day 41 post first injection
Method: NCI-H441 cells from ATCC were routinely cultured in RPMI 1640 medium, 10% FCS, 1% L-Glutamine. Cells were split two days before engraftment being in exponential phase of growth. Ten million NCI-H441 cells were engrafted to Athymic nude mice. […] Mice were treated i.p. either with a loading dose of 2 mg of 224G11 Mab/mouse and then twice a week with 1 mg of antibody/mouse until Day 38 or with 3 injections of Navelbine® (D5, D12, D19) at 8 mg/kg. A third group administered with the combine treatment was also included. Navelbine® was given by i.p. injections. Tumor volume was measured twice a week and calculated by the formula: π/6×length×width×height and animal weights were monitored every day over the period of Navelbine® treatment. Statistical analysis was performed at each measured time using either a t-test or a Mann-Whitney test. […] Results are represented in FIG. 45.

NCI-H441 [2] = assay: In vivo combination of 224G11 and Doxorubicin on NCI-H441 xenograft model; parameters: species or system Athymic nude mice; settings: D11 to D39; Doxorubicin 5 mg/kg i.v.
Method: (§1) NCI-H441 cells from ATCC were routinely cultured in RPMI 1640 medium, 10% FCS, 1% L-Glutamine. Cells were split two days before engraftment being in exponential phase of growth. Ten million NCI-H441 cells were engrafted to Athymic nude mice. […] Mice were treated i.p. either with a loading dose of 2 mg of 224G11 Mab/mouse and then twice a week with 1 mg of antibody/mouse or with 4 injections of Doxorubicin (D5, D12, D19, D26) at 5 mg/kg. A third group administered with the combine treatment was also included. Doxorubicin was given by i.v. injections. Tumor volume was measured twice a week and calculated by the formula: π/6×length×width×height and animal weights were monitored every day over the period of Doxorubicin treatment. Statistical analysis was performed at each measured time using either a t-test or a Mann-Whitney test. […] Results are represented in FIG. 46.

NCI-H441 [3] = assay: In vivo combination of 224G11 and Docetaxel on NCI-H441 xenograft model; parameters: species or system Athymic nude mice; settings: D11 to D35; Docetaxel 7.5 mg/kg i.p.
Method: as §1, with “growth. Nine” for “growth. Ten”, “of Docetaxel” for “of Doxorubicin”, “at 7.5” for “at 5”, “included. Docetaxel” for “included. Doxorubicin”, “by i.p.” for “by i.v.”, “FIG. 47.” for “FIG. 46.”

U87-MG = assay: In vivo combination of 224G11 and Temozolomide on U87MG xenograft model; parameters: species or system Athymic nude mice; settings: D22 to D32; Temozolomide 5 mg/kg i.p.
Method: U87-MG cells from ATCC were routinely cultured in DMEM medium, 10% FCS, 1% L-Glutamine. Cells were split two days before engraftment being in exponential phase of growth. Five million U87-MG cells were engrafted to Athymic nude mice. […] Mice were treated i.p. either with a loading dose of 2 mg of 224G11 Mab/mouse and then twice a week with 1 mg of antibody/mouse or with 3 injections of Temozolomide (D19, D26, D33) at 5 mg/kg. A third group administered with the combine treatment was also included. Temozolomide was given by i.p. injections. Tumor volume was measured twice a week and calculated by the formula: π/6×length×width×height and animal weights were monitored every day over the period of Temozolomide treatment. Statistical analysis was performed at each measured time using either a t-test or a Mann-Whitney test. […] Results are represented in FIG. 48.

MDA-MB-231 = MDA-MB-231 cells co-implanted with MRC5 cells xenograft; type: in vivo, Athymic nude mice; settings: 2 mg loading dose then 1 mg twice a week i.p.
Method: […] and MRC5 cells from ATCC were both cultured in DMEM medium, 10% FCS, 1% L-Glutamine. Cells were split two days before engraftment being in exponential phase of growth. Five million MDA-MB-231 cells and 500 000 MRC5 cells were co-injected s.c. to Athymic nude mice. […] Mice were treated i.p. either with a loading dose of 2 mg of 224G11 Mab/mouse and then twice a week with 1 mg of antibody/mouse. Tumor volume was measured twice a week and calculated by the formula: π/6×length×width×height.

c-Met-Fc-Tag His = target: T1, c-Met-Fc-Tag His (Homo sapiens, UniProt P08581); assay: BIAcore epitope mapping on captured c-Met-Fc; type: binding
T1 construct: c-Met extracellular domain fusion protein (10-15 g/dose/mouse) (R&D Systems, Catalog #358MT); purchased R&D systems 358-MT-CF
T1 sequence (P08581 25-932 limits assumed): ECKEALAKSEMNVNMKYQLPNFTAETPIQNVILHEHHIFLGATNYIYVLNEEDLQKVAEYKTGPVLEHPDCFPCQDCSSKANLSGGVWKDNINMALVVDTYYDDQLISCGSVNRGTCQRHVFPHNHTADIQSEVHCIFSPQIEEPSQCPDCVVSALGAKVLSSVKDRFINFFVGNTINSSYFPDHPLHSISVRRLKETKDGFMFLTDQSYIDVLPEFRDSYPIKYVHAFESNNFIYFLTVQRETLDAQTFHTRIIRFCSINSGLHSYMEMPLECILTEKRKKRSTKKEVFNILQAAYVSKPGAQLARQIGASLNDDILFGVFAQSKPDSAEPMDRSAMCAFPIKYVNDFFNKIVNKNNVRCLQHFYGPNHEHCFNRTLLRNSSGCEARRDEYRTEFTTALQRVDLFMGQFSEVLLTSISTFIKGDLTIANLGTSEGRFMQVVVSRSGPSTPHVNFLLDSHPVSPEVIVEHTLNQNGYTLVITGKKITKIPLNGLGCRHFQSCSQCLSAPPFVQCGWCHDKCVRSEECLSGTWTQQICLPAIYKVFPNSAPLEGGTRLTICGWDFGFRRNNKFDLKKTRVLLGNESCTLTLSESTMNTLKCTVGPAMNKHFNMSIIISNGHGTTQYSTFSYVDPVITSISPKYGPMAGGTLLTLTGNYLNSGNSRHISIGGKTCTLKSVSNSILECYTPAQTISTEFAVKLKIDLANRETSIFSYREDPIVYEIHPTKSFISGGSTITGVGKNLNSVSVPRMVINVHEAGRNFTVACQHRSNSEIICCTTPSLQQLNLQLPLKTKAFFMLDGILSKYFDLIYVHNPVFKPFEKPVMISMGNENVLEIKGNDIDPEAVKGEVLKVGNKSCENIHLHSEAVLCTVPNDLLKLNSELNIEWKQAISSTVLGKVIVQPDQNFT
Description: A couple of antibodies unable to bind at the same time on the antigen molecule are classified in the same group (identical or neighbouring binding sites). At the opposite when their respective binding sites are sufficiently distant to allow a simultaneous binding of both antibodies these later are classified into two different groups. In such experiments, the antigen is commonly used as the ligand (immobilized on the sensorchip) and the antibodies are used without any labelling as analytes (solution phase).
All the experiments described have been done on a BIAcore X instrument (GE Healthcare Europe GmbH). A CM5 sensorchip (BIAcore) activated by a mouse anti-Tag-6His Mab (R&D System ref. MAB050) has been prepared following the manufacturer instructions by using the amine coupling kit (BIAcore). The running buffer (HBS-EP) and regeneration buffer (Glycine, HCl) are from BIAcore. A recombinant soluble version of the human HGF receptor produced as a chimeric molecule c-Met-Fc-Tag His was from R&D systems (ref. 358-MT-CF). […]
The ability of an antibody “A” to block the binding of an antibody “B” is calculated by the ratio BIA/C=(R2A/B/R1B)×100: where R2A/B is the response corresponding to the binding of the MAb “B” when it was injected after Mab “A” and R1B is the response corresponding to the binding of the MAb “B” when it was injected first. […]

NCI-H441 cells = assay: Wound healing (migration) assay with NCI-H441 cells; type: cell-based
Method: HGF stimulates motility. To determine whether the anti-HGF antibodies were able to inhibit migration, NCI-H441 cells were grown to high density and a gap was introduced with a P200 pipette tip. Cells were then stimulate to migrate across the gap with HGF (100 ng/ml) in presence or in absence of 11E1. Wells with 11E1 alone were also evaluated. Each tested condition was evaluated as a sextuplicate and 3 independent experiments were performed. After an overnight incubation, cells were visualized with an Axio Vision Camera (objective ×4).

Row | BIA/C ratio, 2nd Ab (B) 5D5 (c-Met-Fc-Tag His; listed as antibody injected first (A), 5D5 second, 10 μg/ml, below 20% = blocks) [%] | epitope mapping, binding sites (c-Met-Fc-Tag His; sequential injections of 5D5 and 11E1 on captured c-Met-Fc) | Molecule | reduction of average tumor volume (NCI-H441 [1]) [%] | anti-tumor activity compared to the control group (NCI-H441 [2]) | anti-tumor activity compared to the control group (NCI-H441 [3]) | anti-tumor activity compared to the control group (U87-MG) | median tumors growth compared to the control group (MDA-MB-231) | effect on cell migration in presence of HGF (NCI-H441 cells; NCI-H441, HGF 100 ng/ml) | agonist effect on cell migration, added alone (NCI-H441 cells; NCI-H441, no HGF)
1 |  |  | 224G11: murine anti-c-Met monoclonal antibody, IgG1 kappa; heavy chain SEQ ID No. 18, light chain SEQ ID No. 21 (antibody, V domains shown, mus musculus) VH: EVQLQQSGPELVKPGASVKISCKTSGYIFTAYTMHWVRQSLGESLDWIGGIKPNNGLANYNQKFKGKATLTVDKSSSTAYMDLRSLTSEDSAVYYCARSEITTEFDYWGQGTALTVSS VL: DIVLTQSPASLAVSLGQRATISCRASESVDSYANSFMHWYQQKPGQPPKLLIYRASNLESGIPARFSGSGSRTDFTLTINPVEADDVATYYCQQSKEDPLTFGSGTKLEMK | 72 | significant anti-tumor activity | significant anti-tumor activity | significant anti-tumor activity | significant difference in median tumors growth |  | 
2 | 84.2 | bind clearly to two distant sites | 11E1: murine anti-c-Met monoclonal antibody, IgG1 kappa; heavy chain SEQ ID No. 62, light chain SEQ ID No. 63 (antibody, V domains shown, mus musculus) VH: QVQLQQSGAELAKPGASVKMSCKASGYTFTSYWMNWVKQRPGQGLEWIGYINPTTGSTDYNQKLKDKATLTADKSSNTAYMQLSSLTSEDSAVYYCAIGGYGSWFAYWGQGTLVTVSA VL: QIVLTQSPAIMSASPGEKVTLTCSASSSVSSTYLYWYQQKPGSSPKLWIYTTSILASGVPARFSGSGSGTSYSLTISSMETEDAASYFCHQWSSYPFTFGSGTKLDIK |  |  |  |  |  | full antagonist | no agonist effect
